Results published in US20140179896A1 (published 2014).
Residue numbers refer to the chain shown, from its start.

B1: A3 (designed binder)
chain: EVVAATPTSLLISWRHPHFPTRYYRITYGETGGNSPVQEFTVPLQPPTATISGLKPGVDYTITGYAVTDGWNGKMLSVPISINYRT
notes: 10Fn3 clone, Del 1-8
B2: 4′C9 PR4 (designed binder)
chain: B1 chain with D69L, W71P, G73D, K74H, M75E, S77M, V78T
notes: Del 1-8
B3: 4′B7 PR4 (designed binder)
chain: B1 chain with D69V, G70A, W71Q, G73N, K74H, M75E, S77L, V78T
notes: Del 1-8
B4: 3′G10 PR4 (designed binder)
chain: B1 chain with D69L, G70T, W71H, G73D, K74H, M75E, S77L, V78T
notes: Del 1-8
B5: 4′G12 PR4 (designed binder)
chain: B1 chain with D69V, G70A, G73D, K74H, M75E, L76I, S77Y, V78T
notes: Del 1-8
B6: 4′C5 PR4 (designed binder)
chain: B1 chain with D69L, W71L, G73D, K74H, M75E, S77I, V78T
notes: Del 1-8
B7: 3′G3 PR4 (designed binder)
chain: B1 chain with D69F, G70D, W71Q, N72S, G73D, K74H, M75E, S77L, V78T
notes: Del 1-8
B8: 4H5 PR3 (designed binder)
chain: B1 chain with D69V, G70A, W71Q, K74H, M75E, S77I, V78T
notes: Del 1-8
B9: F12 (designed binder)
chain: B1 chain with W71R, K74H, M75E, S77M, V78T
notes: 10Fn3 clone, Del 1-8
B10: A4 (designed binder)
chain: B1 chain with W71Y, G73D, K74R, M75L, S77F, V78I
notes: 10Fn3 clone, Del 1-8
B11: 3′H11 PR4 (designed binder)
chain: B1 chain with D69L, G70A, W71H, K74N, M75E, S77L, V78T
notes: Del 1-8
B12: 4′B11 PR4 (designed binder)
chain: B1 chain with D69M, G70A, W71H, G73D, K74H, M75E, S77L, V78T
notes: Del 1-8
B13: 4′H5 PR4 (designed binder)
chain: B1 chain with D69L, G70A, W71Q, K74H, M75E, S77F, V78T
notes: Del 1-8
B14: 4′E7 PR4 (designed binder)
chain: B1 chain with D69W, G70A, W71Q, G73D, K74H, M75E, S77L, V78T
notes: Del 1-8
B15: 3′H1 PR4 (designed binder)
chain: B1 chain with D69F, G70A, W71Q, G73D, K74H, M75Q, S77F, V78T
notes: Del 1-8
B16: 3′F3 PR4 (designed binder)
chain: B1 chain with D69L, W71H, G73D, K74R, M75E, S77L, V78T
notes: Del 1-8
B17: 3′G1 PR4 (designed binder)
chain: B1 chain with D69L, G70A, W71L, K74H, M75E, S77F, V78T
notes: Del 1-8
B18: 4′G4 PR4 (designed binder)
chain: B1 chain with D69V, G70A, W71Q, G73D, K74R, M75E, S77L, V78T
notes: Del 1-8
B19: 4′B3 PR4 (designed binder)
chain: B1 chain with D69M, G70A, W71Q, G73N, K74R, M75E, S77L, V78T
notes: Del 1-8
B20: 3′F12 PR4 (designed binder)
chain: B1 chain with D69L, G70S, W71Q, N72T, G73D, K74H, M75E, S77L, V78T
notes: Del 1-8
B21: 3′F1 PR4 (designed binder)
chain: B1 chain with D69V, G70A, W71Q, N72D, K74H, M75F, S77Y, V78T
notes: Del 1-8
B22: 3′F2 PR4 (designed binder)
chain: B1 chain with D69L, W71K, G73D, K74H, M75E, S77L, V78T
notes: Del 1-8
B23: 4′H7 PR4 (designed binder)
chain: B1 chain with D69L, G70A, W71H, G73D, K74H, M75E, S77L, V78T
notes: Del 1-8
B24: 4C9 PR3 (designed binder)
chain: B1 chain with D69L, G70A, W71Q, G73D, K74H, M75E, S77L, V78T
notes: Del 1-8
B25: 3′F9 PR4 (designed binder)
chain: B1 chain with D69L, W71P, G73D, K74R, M75E, S77M, V78T
notes: Del 1-8
B26: 3′H9 PR4 (designed binder)
chain: B1 chain with D69H, W71P, N72Y, G73D, K74Q, M75V, S77L, V78T
notes: Del 1-8
B27: 3′H3 PR4 (designed binder)
chain: B1 chain with D69L, W71L, G73D, K74R, M75E, S77M, V78T
notes: Del 1-8
B28: 3′G7 PR4 (designed binder)
chain: B1 chain with D69E, W71Q, G73D, K74Q, M75L, S77F, V78I
notes: Del 1-8
B29: 3′H8 PR4 (designed binder)
chain: B1 chain with D69V, W71H, G73D, K74R, M75E, S77I, V78T
notes: Del 1-8
B30: 4′H12 PR4 (designed binder)
chain: B1 chain with D69V, G70A, W71H, G73D, K74H, M75E, S77L, V78T
notes: Del 1-8
B31: 3′E11 PR4 (designed binder)
chain: B1 chain with D69V, W71P, N72H, G73D, K74R, M75E, S77L, V78T
notes: Del 1-8
B32: 4′D6 PR4 (designed binder)
chain: B1 chain with D69M, G70A, W71Q, G73D, K74H, M75E, S77M, V78T
notes: Del 1-8
B33: G1 (designed binder)
chain: B1 chain with D69E, W71R, K74R, M75E, S77M
notes: 10Fn3 clone, Del 1-8
B34: B11 (designed binder)
chain: B1 chain with D69V, G70E, W71R, K74R, M75E, S77K, V78T
notes: 10Fn3 clone, Del 1-8
B35: 4′B8 PR4 (designed binder)
chain: B1 chain with D69V, G70A, W71Q, G73D, K74H, M75K, S77F, V78I
notes: Del 1-8
B36: 4F4 PR3 (designed binder)
chain: B1 chain with D69L, G70A, W71Q, G73D, K74R, M75E, S77I, V78T
notes: Del 1-8
B37: 3′G2 PR4 (designed binder)
chain: B1 chain with D69L, G70A, W71Q, K74H, M75E, S77I, V78T
notes: Del 1-8
B38: 4B11 PR3 (designed binder)
chain: B1 chain with D69V, W71Q, G73N, K74H, M75E, S77I, V78T
notes: Del 1-8
B39: 3′H10 PR4 (designed binder)
chain: B1 chain with D69W, G70A, G73D, K74H, M75E, S77M, V78T
notes: Del 1-8
B40: 4′D8 PR4 (designed binder)
chain: B1 chain with D69L, G70A, W71Q, K74H, M75E, S77Y, V78T
notes: Del 1-8
B41: 4′A5 PR4 (designed binder)
chain: B1 chain with D69L, G70A, W71Q, G73D, K74H, M75E, S77L, V78T
notes: Del 1-8
B42: 3′F6 PR4 (designed binder)
chain: B1 chain with D69I, G70E, W71Q, N72S, K74L, M75Q, S77M, V78T
notes: Del 1-8
B43: 2′E4-PR4 (designed binder)
chain: VSDVPRDLEVVAATPTSLLISWRHPHFPTRYYRITYGETGGNSPVQEFTVPLQPPTATISGLKPGVDYTITGYAVTVHWNGHELMTPISINYRT
notes: WT N-terminus
B44: 2′C6-PR4 (designed binder)
chain: B43 chain with V77M, H78G, W79F, N80M, G81A, T86V
notes: WT N-terminus
B45: 2′D6-PR4 (designed binder)
chain: B43 chain with H78T, W79H, E83P
notes: WT N-terminus
B46: 2′H4-PR4 (designed binder)
chain: B43 chain with H78G, W79P, G81E, H82R, E83M
notes: WT N-terminus

How the values were obtained:
[1] = biological target: T1, human vascular endothelial growth factor receptor-2 Fc chimera (KDR-Fc) (human, UniProt P35968 20-764); assay: radioactive equilibrium binding assay, 1 nM KDR-Fc, % of input bound
T1 construct: range 1-764; also called human VEGFR-2; not shown: human IgG1 Fc
Procedure: (§1) To prepare ³⁵S-labeled binding proteins for analysis, mRNA was prepared as described above for RNA-protein fusion production but the linker ligation step was omitted. The mRNA was expressed using rabbit reticulocyte lysate translation kit (Ambion) in the presence of ³⁵S-labeled Met at 30° C. for 1 hour. Expressed protein was purified on M2-agarose Flag beads (Sigma) as described above. This procedure produced the encoded protein without the nucleic acid tail. In a direct binding assay, VEGF-R2-Fc fusions in concentrations ranging from 0 to 200 nM were added to a constant concentration of the purified protein (0.2 or 0.5 nM) and incubated at 30° C. for 1 hour in buffer B. The receptor-binder complexes were captured using Protein A magnetic beads for another 10 minutes at room temperature using a Kingfisher™ The beads were washed with six reaction volumes of buffer B. The protein was eluted from the beads with 100 μL of 0.1 M KOH. […] of the reaction mixture and elution were dried onto a LumaPlate-96 (Packard) and the amount of ³⁵S on the plate was measured using a TopCount NXT instrument (Packard). The amount of fibronectin-based scaffold protein bound to the target was estimated as a percent of radioactivity eluted from Protein A magnetic beads compare to radioactivity in the reaction mixture. Nonspecific binding of fibronectin-based scaffold proteins to the beads was determined by measuring binding in the absence of KDR-Fc and represented less than 1-2% of the input. Specific binding was obtained through subtraction of nonspecific binding from total binding. Data was analyzed using the GraphPad Prizm software (GraphPad Software, Inc, San Diego, Calif.), fitted using a one site, non-linear binding equation.
T1 sequence (P35968 20-764 limits assumed, change not shown, form in doubt): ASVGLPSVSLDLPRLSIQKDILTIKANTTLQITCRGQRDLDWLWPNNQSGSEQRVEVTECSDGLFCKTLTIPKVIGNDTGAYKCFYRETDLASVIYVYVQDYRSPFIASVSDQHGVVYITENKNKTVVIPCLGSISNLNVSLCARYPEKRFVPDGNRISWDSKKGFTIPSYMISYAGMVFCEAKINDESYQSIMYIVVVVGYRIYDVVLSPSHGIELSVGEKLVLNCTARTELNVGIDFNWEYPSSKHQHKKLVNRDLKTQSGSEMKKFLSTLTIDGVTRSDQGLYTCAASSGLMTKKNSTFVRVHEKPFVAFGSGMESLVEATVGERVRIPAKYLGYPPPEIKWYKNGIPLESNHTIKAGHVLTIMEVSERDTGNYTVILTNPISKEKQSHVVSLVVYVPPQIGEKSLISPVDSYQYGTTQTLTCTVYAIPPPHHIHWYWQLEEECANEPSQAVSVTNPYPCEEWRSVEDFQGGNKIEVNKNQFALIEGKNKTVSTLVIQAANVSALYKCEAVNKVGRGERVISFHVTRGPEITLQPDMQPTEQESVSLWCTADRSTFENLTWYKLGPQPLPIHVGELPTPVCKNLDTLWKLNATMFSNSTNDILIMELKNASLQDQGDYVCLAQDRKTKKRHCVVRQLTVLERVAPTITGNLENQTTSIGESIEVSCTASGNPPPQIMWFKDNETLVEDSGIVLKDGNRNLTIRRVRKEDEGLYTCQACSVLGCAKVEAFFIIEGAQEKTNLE

[2] = biological target: T2, mouse vascular endothelial growth factor receptor-2 Fc chimera (Flk-1-Fc) (mouse, UniProt P35918 20-762); assay: radioactive equilibrium binding assay, 1 nM Flk-1-Fc, % of input bound
T2 construct: Bought from R&D Systems; also called mouse VEGFR-2; not shown: Fc part of the purchased chimera, not specified
T2 sequence (P35918 20-762, change not shown): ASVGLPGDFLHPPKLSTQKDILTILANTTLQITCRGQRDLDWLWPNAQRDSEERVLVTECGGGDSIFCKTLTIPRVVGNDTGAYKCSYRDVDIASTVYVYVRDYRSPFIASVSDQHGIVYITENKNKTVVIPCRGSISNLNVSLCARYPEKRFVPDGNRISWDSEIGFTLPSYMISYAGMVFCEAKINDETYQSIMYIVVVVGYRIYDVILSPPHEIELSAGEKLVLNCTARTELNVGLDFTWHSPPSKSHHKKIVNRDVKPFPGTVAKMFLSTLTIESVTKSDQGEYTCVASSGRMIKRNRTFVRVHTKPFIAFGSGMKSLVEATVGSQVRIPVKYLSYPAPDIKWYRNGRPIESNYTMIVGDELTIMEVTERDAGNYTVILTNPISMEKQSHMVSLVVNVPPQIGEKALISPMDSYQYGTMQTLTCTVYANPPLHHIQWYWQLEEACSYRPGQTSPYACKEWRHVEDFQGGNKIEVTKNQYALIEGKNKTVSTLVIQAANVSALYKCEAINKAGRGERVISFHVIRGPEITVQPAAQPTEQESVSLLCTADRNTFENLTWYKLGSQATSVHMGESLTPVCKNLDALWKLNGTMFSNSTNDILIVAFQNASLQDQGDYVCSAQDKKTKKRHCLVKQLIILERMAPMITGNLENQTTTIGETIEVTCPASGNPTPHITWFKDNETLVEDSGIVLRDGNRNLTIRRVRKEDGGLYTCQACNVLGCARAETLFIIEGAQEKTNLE
Procedure: as §1

[3] = biological target: T3, human vascular endothelial growth factor receptor-2 Fc chimera (KDR-Fc) (human, UniProt P35968 20-764); assay: radioactive equilibrium binding, 1 nM KDR-Fc
T3 construct: range 1-764; also called human VEGFR-2; VEGF-R2-Fc; not shown: human IgG1 Fc
Procedure: as §1
T3 sequence (P35968 20-764 limits assumed, change not shown, form in doubt): as the sequence (P35968 20-764 limits assumed, change not shown, form in doubt) above

Row | Binder | Binding to 1 nM KDR, % [3] | other results
1 | B1 | – | Binding to 1 nM KDR, % [1]: 33%; Binding to 1 nM Flk-1, % [2]: 7%
2 | B2 | 29% | –
3 | B3 | 16% | –
4 | B4 | 30% | –
5 | B5 | 21% | –
6 | B6 | 27% | –
7 | B7 | 31% | –
8 | B8 | 14% | –
9 | B9 | – | Binding to 1 nM KDR, % [1]: 17%
10 | B10 | – | Binding to 1 nM KDR, % [1]: 46%; Binding to 1 nM Flk-1, % [2]: 2%
11 | B11 | 39% | –
12 | B12 | 25% | –
13 | B13 | 18% | –
14 | B14 | 17% | –
15 | B15 | 22% | –
16 | B16 | 37% | –
17 | B17 | 19% | –
18 | B18 | 19% | –
19 | B19 | 42% | –
20 | B20 | 17% | –
21 | B21 | 31% | –
22 | B22 | 29% | –
23 | B23 | 29% | –

Row | Binder | Binding to 1 nM KDR, % [3] | other results
24 | B24 | 16% | –
25 | B25 | 18% | –
26 | B26 | 24% | –
27 | B27 | 36% | –
28 | B28 | 19% | –
29 | B29 | 20% | –
30 | B30 | 17% | –
31 | B31 | 17% | –
32 | B32 | 14% | –
33 | B33 | – | Binding to 1 nM KDR, % [1]: 22%
34 | B34 | – | Binding to 1 nM KDR, % [1]: 29%
35 | B35 | 20% | –
36 | B36 | 15% | –
37 | B37 | 15% | –
38 | B38 | 15% | –
39 | B39 | 14% | –
40 | B40 | 26% | –
41 | B41 | 16% | –
42 | B42 | 24% | –
43 | B43 | 22% | –
44 | B44 | 16% | –
45 | B45 | 22% | –
46 | B46 | 17% | –
